This note sets out measurements from patent US20150309057A1, “Giant Liposome Array for High-throughput Lipid-Interaction Screening” (EUROPEAN MOLECULAR BIOLOGY LABORATORY (EMBL), priority 2012, published 2015).

Assay [1] in a line: Liposome array cooperative membrane recruitment (NBI). To be noted: GFP-tagged fusion, cooperative binding. The text has this: FIG. 13: High-throughput image processing and calculation of normalized binding intensity. (a) Image processing pipeline. Multiple images are acquired, one exposure time for Atto647 and multiple exposure times for GFP to capture broad range of binding intensities, from strong (short exp. times) to weak (longer exp. times). All images are then processed with CellProfiler software. After removal of background, the Atto647 image is used for segmentation to obtain a mask representing position of liposome membranes. In parallel the combination of overexposed pixels from both channels (Atto647 and GFP) is removed from every pair of Atto647 and GFP image. Subsequently, a mask is applied to all filtered (i.e. without overexposed pixels) images. Number of pixels matching with the mask and their mean fluorescence intensity is extracted from all images (i.e. both channels and every exposure time). Normalized binding intensity (NBI) is then calculated as a ratio of mean fluorescence intensity from GFP channel and mean fluorescence intensity from Atto647 channel for every pair of images. (b) Image segmentation and liposome counting. […] CellProfiler software is used to segment the image to retrieve a mask representing liposome membranes, and also to search for centers of liposomes that are then used for estimating a number of liposomes analyzed per image. […]

A short description of assay [2]: Liposome array lipid-binding profile, normalized binding intensity (NBI). To be noted: GFP-tagged fusion, cell lysate, 20 min incubation. The text has this:
(§1) FIG. 13: High-throughput image processing and calculation of normalized binding intensity. (a) Image processing pipeline. Multiple images are acquired, one exposure time for Atto647 and multiple exposure times for GFP to capture broad range of binding intensities, from strong (short exp. times) to weak (longer exp. times). All images are then processed with CellProfiler software. After removal of background, the Atto647 image is used for segmentation to obtain a mask representing position of liposome membranes. In parallel the combination of overexposed pixels from both channels (Atto647 and GFP) is removed from every pair of Atto647 and GFP image. Subsequently, a mask is applied to all filtered (i.e. without overexposed pixels) images. Number of pixels matching with the mask and their mean fluorescence intensity is extracted from all images (i.e. both channels and every exposure time). Normalized binding intensity (NBI) is then calculated as a ratio of mean fluorescence intensity from GFP channel and mean fluorescence intensity from Atto647 channel for every pair of images. […] CellProfiler software is used to segment the image to retrieve a mask representing liposome membranes, and also to search for centers of liposomes that are then used for estimating a number of liposomes analyzed per image. […] Fluorescence signal was analysed via a high-throughput image analysis pipeline (FIG. 13). […]

Experiment in assay [3]: as above
Conditions: GFP-tagged fusion, cell lysate, 20 min incubation.
Text: as §1
This is another data set of the same source.

Experiment in assay [4]: as above
Conditions: GFP-tagged fusion, cell lysate, 20 min incubation.
Text: as §1
This is another data set of the same source.

Assay [5] in a line: Akt PH domain binding to liposome array, wide-field fluorescence microscopy. Conditions: E. coli lysate with fluorescently labelled domain, 30 minutes incubation, PBS wash. The text has this: (§2) The Akt Pleckstrin Homology (PH) domain (positions 6 to 110) is known to specifically bind to PI-(3,4)-P2 and PI-(3,4,5)-P3 and is thus, used as a model system to evaluate the specificity and sensitivity of assays performed using the liposome array. The fluorescently labelled Akt PH domain is expressed in Escherichia coli, cells are lysed by sonication and after a centrifugation at 10000 g, supernantant is recovered and injected in the microchip. Several liposome arrays each comprising liposomes formed from different lipids are produced. Liposomes either comprised POPC only, or a […] mol:mol mixture of POPC:DOPS, POPC:PI3P, POPC:PI4P, POPC:PI(3,4)P2, POPC:PI(3,5)P2, POPC:PI(4,5)P2, POPC:PI(3,4,5)P3 (all of which are purchased from Avanti polar lipids) as shown in FIG. 11(a) to (h), respectively.
(§3) E. coli lysate comprising the fluorescently labelled Akt PH domain is applied to the liposome array and incubated 30 minutes and washed with PBS buffer before imaging.

Experiment in assay [6]: as above
Conditions: E. coli lysate with fluorescently labelled domain, 30 minutes incubation, PBS wash.
Text: as §2, §3
This is another data set of the same source.

On to “Pkcγ: protein kinase C-γ, GFP-tagged fusion”, for which, in assay [1], the membrane recruitment result is given as “calcium-dependent recruitment”.

B1: Hsv2: Hsv2 protein (PROPPIN domain), GFP-tagged fusion (protein, UniProt P50079 1-448, looked up)
SVP1-like protein 2: MDVRRPIREAVNNRRKPKFLSVSFNQDDSCFSVALENGFRIFNTDPLTSKLSKTFKESATNQSRGTGIGYTRMLYRTNYIALVGGGKRPRHALNKLIIWDDLLQKETITLKFMSSIKDVFLSRIHIVVVLENTIEIFQFQTNPQRICPILDIPPNGSVDYVVCSSKHLQSQASQSQSKILEIIAFPSNKCVGQIQVADLSQIKYNSQNPKESALLPTSIIKAHKNPIKLVRLNRQGTMVATCSVQGTLIRIFSTHNGTLIKEFRRGVDKADIYEMSFSPNGSKLAVLSNKQTLHIFQIFETTNTETNTPDHSRANGSSHPLKNYIPKGLWRPKYLDSVWSICNAHLKNPIFDAHRNDNSGDVTHDNEFYKDRCRIGWCQDSNNREQDDSLVLVWQNSGIWEKFVILEKEQQDSSKTHYSLNESLRNEDTKSAGEPTRWELVRESWREL
modifications: GFP tag
notes: Hsv2 protein (PROPPIN domain), GFP-tagged fusion
Take B1: the “interaction confirmed by NBI profile” value in assay [2] and in assay [3] was “interactions” each time.

B2: Akt PH domain: Akt Pleckstrin Homology (PH) domain (positions 6 to 110), fluorescently labelled, expressed in Escherichia coli (protein, UniProt P31749 6-110, looked up, fragment)
chain: IVKEGWLHKRGEYIKTWRPRYFLLKNDGTFIGYKERPQDVDQREAPLNNFSVAQCQLMKTERPRPNTFIIRCLQWTTVIERTFHVETPEEREEWTTAIQTVADGL
modifications: PH domain fluorescent label
notes: Akt Pleckstrin Homology (PH) domain (positions 6 to 110), fluorescently labelled, expressed in Escherichia coli
For the molecule B2, the “interaction confirmed by NBI profile” value in assay [4] and in assay [3] was “interactions” in each case. For the same molecule, the binding to liposomes result in assay [5] and in assay [6] was “binds” throughout.
